One assay concerns LAIR-1. As to the kind of experiment: Ligand (collagen) mediated LAIR-1 signaling blockade in UT-140 reporter cells. The class given is cell-based, human. As for the experimental part:
FIGS. 24A-24C display h11B3 LAIR-1 mAbs, containing a variable light chain of SEQ ID NO: 16 and a variable heavy chain of SEQ ID NO:27, binds LAIR-1 and blocks its functional signaling triggered by collagen-I in UT-140 reporter cells. Seed 1e4 UT140 reporter cells/100 μl in 96-well flat bottom plate. LAIR1 signaling was induced by 10 μg/ml coated collagen treatment. Blocking of LAIR1 signaling by such h11B3 LAIR-1 mAbs was determined by addition of different concentrations of such h11B3 LAIR-1 mAbs in 100 μL per well. Cultures were maintained for 20 hours, and the GFP was read on flow cytometry.
FIGS. 25A-25B display h11B3 LAIR-1 mAbs, containing a variable light chain of SEQ ID NO: 16 and a variable heavy chain of SEQ ID NO:27, blocks collagen-1 signaling. […] Reporter activation was quantified by flow cytometry. […]
For cell binding assays, 5e4 UT-140 cells or mouse LAIR-1-transfected 293T cells per well were plated in 200 μL PBS in a 96-well round bottom plate, centrifuged for 4 minutes at 500×g for a single wash, and blocked for 10 minutes on ice with flow cytometry buffer (PBS+2% FBS+0.1 mM EDTA) containing 1:50 dilution of TruStain™ Fc block (Biolegend, San Diego, CA). […] Cells were then washed 3 times as previously described and binding was measured by flow cytometry using an Attune NXT flow cytometer. […] GFP expression was measured by flow cytometry using an Attune NXT Flow Cytometer.

Another assay relates to SoC-resistant AML cells. As to the kind of experiment: Ex vivo killing of VEN/AZA-treated AML patient leukemic cells. The format is cell-based, human. To be noted: 5 μg/mL of antibody; fresh BM leukemic cells from a patient treated with VEN/AZA. As for the experimental part: Ex vivo killing of VEN/AZA-treated AML patient leukemic cells (FIG. 7A) or T cells or NK cells (FIG. 7B). Values normalized to vehicle control. Lines represent linear regression of NC525 concentration versus normalized cell killing. […] FIGS. 7D and 7E show in vivo leukemic growth as measured by whole-body luminescence of MV4-11-luciferase cells (FIG. 7D) or survival (FIG. 7E) of CDX mice treated with 10 mg/kg isotype control (gray) or NC525 (red) or 100 mg/kg VEN (pink) or 0.5 mg/kg AZA (blue) or combination therapy (green or yellow, respectively). BLoD, below limit of detection. n=9 mice per group. P values determined by 2-way ANOVA or log-rank (Mantel-Cox) test, respectively. FIGS. 7F and 7G show leukemic growth in the blood (FIG. 7F) and in the spleen and BM (FIG. 7G) at week 8 after transplant of AML PDX mice treated with vehicle (gray), VEN/AZA (blue), NC525 (red), or VEN/AZA plus NC525 (green). n=5-10 mice per group. AML cells in spleen and BM compared from 4-5 mice per group. Data are shown as the mean±SEM. P values determined by 2-way ANOVA or 1-way ANOVA with multiple comparisons.

B1: LAIR-1 mAb: humanized agonist anti-LAIR-1 mAb, IgG1 backbone; h11B3 VL-2 (SEQ ID NO: 16), h11B3 VH-3 (SEQ ID NO: 27) (antibody, V domains shown)
VH: EVQLVESGGGLVQPGGSLKLSCAASGFTFNTNAMYWVRQAPGKGLEWVGRIRSKSSNYATYYAASVKGRFTISRDDSKNTLYLQMNSLKTEDTAVYYCVRGGSGFFAYWGQGTLVTVSS
VL: DIQMTQSPSSLSASLGDRVTITCKASEDIYIRLAWYQQKPGKAPRLLISTATSLETGVPSRFSGSGSGTDYTFTISSLQPEDIATYYCQQYWSTPYTFGGGTRLEIK
modifications: IgG1 constant regions; Synthetic: h11B3 VH-3; Synthetic: h11B3 VL-2
On to B1, for which the “collagen binding to LAIR-1” value in the assay on LAIR-1 was “blocks collagen binding”. For the same molecule, the “killing of SoC-resistant AML cells” value in the assay with SoC-resistant AML cells is on record as “up to 70%”.
